We go through two substances from PMC3486956.

In this assay the target is aggregated glucose-6-phosphate dehydrogenase (G6PDH) from Leuconostoc mesenteroides (Leuconostoc mesenteroides) (UniProt P11411). As to the kind of experiment: retention with aggregates on a 0.1-μm filter, SDS-PAGE.
Chain of UniProt P11411 (P11411 whole entry): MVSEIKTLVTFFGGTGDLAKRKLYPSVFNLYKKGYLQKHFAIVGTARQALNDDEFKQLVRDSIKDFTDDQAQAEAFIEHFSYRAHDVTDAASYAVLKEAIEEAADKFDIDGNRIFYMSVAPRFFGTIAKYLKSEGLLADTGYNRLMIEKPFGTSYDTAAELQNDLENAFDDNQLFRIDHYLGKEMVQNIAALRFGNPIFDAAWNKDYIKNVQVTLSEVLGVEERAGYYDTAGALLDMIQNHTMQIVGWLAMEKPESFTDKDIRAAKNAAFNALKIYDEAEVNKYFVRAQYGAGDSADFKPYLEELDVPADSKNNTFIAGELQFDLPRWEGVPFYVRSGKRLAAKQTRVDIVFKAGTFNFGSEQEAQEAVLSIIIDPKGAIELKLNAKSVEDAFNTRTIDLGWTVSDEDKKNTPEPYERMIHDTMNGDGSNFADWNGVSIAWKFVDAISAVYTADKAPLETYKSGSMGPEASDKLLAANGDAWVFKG

As for “ClpB 2P (GG motif converted into PP) (from UniProt P63284 1-857) (natural protein)”, the decrease of the amount bound compared to wt ClpB is 50%.

Consider “ClpB 4G (four Gly inserted in the N-terminal linker) (from UniProt P63284 1-857) (natural protein)”, for which the decrease of the amount bound compared to wt ClpB stood at 50%.
